The target in data set [1] is T1, HNF3beta (FOXA2) (Rattus norvegicus, UniProt P32182 P32182:1-458).
T1 sequence: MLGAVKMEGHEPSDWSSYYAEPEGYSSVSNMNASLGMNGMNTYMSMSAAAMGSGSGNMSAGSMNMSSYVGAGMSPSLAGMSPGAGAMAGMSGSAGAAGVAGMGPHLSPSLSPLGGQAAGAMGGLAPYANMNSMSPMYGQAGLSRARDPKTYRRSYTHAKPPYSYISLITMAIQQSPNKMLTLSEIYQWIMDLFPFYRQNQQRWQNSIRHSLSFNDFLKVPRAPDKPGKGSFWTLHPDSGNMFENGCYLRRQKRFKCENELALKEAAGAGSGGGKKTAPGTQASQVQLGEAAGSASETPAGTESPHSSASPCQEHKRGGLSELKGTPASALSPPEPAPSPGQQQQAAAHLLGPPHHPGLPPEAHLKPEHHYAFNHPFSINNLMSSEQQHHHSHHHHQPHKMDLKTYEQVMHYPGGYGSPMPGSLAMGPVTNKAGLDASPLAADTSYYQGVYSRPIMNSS
The experiment in a line: EMSA; high affinity. The following applies: tags: pGEM-1 ratHNF3beta, TNT lysate; label: 32P. The source says:
(§1) Single-stranded oligonucleotides corresponding to the sequences in the human ngn3 promoter were 5′ end-labeled with [γ-³²P]-ATP using T4 polynucleotide kinase. The labeled oligonucleotides were column-purified and annealed to an excess of the complementary strand. For HNF3β and HNF 1α binding experiments, EMSA buffers and electrophoresis conditions were as previously described (Mirmira et al. J Biol Chem 275:14743-51, 2000). For HES-1 binding experiments, conditions were the same except that the poly(dI-dC) concentration was decreased to 15 ng/ul. One μl of the in vitro reaction mixture or 2 ug of nuclear extracts or 400 ng of GST-fused Hes1 protein were used for each binding reaction. When using antibodies, 1 μl of each antibody was incubated with the binding mix for 15 min at room temperature prior to gel-electrophoresis. The antisera against HNF-3α, -3β, and -3γ were a generous gift from R. Costa (University of Illinois) and the HES-1 antiserum was a generous gift from Y. Jan (University of California San Francisco). The anti-HNF-1α antiserum was purchased from Santa Cruz Biotechnology, Inc. […]

The next data set has as its target T2, E47 (UniProt P15923-2 P15923-2:1-651).
T2 sequence: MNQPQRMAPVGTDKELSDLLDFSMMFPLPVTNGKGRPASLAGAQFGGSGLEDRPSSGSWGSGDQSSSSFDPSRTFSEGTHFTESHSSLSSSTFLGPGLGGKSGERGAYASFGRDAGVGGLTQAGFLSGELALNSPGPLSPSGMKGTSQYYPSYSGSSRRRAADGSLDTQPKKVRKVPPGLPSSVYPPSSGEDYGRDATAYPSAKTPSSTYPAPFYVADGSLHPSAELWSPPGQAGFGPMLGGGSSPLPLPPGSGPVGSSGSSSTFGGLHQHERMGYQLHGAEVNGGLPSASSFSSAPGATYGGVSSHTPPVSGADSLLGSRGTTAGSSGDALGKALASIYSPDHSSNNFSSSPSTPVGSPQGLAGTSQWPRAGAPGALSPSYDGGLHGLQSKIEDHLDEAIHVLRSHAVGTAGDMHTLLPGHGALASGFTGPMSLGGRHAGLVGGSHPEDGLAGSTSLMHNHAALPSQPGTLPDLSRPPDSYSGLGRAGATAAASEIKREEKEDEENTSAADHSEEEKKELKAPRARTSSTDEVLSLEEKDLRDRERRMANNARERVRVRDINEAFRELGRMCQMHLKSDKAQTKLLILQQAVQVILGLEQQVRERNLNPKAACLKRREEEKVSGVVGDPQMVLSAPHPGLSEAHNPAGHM
The experiment in a line: EMSA; comparable affinity on all four probes. The settings on record: tags: TNT reticulocyte lysate; chain copies: 2 inferred; label: 32P. How it is done: (§2) FIGS. 23A-23B are photographs of electromobility shift assays (EMSAs) showing that bHLH factors bind pancreatic promoter E boxes. EMSA were used to test the ability of E47, neurogenin3 and neuroD 1 to bind to labeled, double stranded oligonucleotides containing the E box sequences from the rat insulin I and mouse nkx2.2 promoters (23A) or the human PAX4 and NEUROG3 promoters (23B). 1 μl of each in vitro-translated protein was incubated with the indicated probes, either individually or in the combination shown. Results are typical of experiments done on three occasions.
(§3) Electromobility Shift Assays. Single stranded oligonucleotides were 5′-end labeled using (γ-32P) ATP and T4 polynucleotide kinase. An excess of complementary strand was then annealed to form a duplex strand that was column purified. EMSA buffers and electrophoresis conditions were as described above using 500 ng of poly(dIdC):poly(dIdC) per 10 ul binding mix. For in vitro produced protein, 1 μl of the 50 μl total reaction volume was used per binding mix.
(§4) Oligonucleotides used were as follows (coding strand shown from each double stranded pair): NEUROG3 promoter E element, 5′-[…]-3′; rat insulin I promoter E2 element, 5′-[…]-3′; PAX4 promoter E element, 5′-[…]-3′; nkx2.2 promoter E3 element 5′-[…]-3′. EMSA results are representative of those seen on at least 3 occasions.
(In general: In EMSA bound probe runs differently from free probe, usually more slowly.)

The target in data set [2] is T3, E47/NeuroD1 heterodimer (UniProt P15923-2;Q60867 P15923-2:1-651,Q60867:1-357). Description: EMSA; third of four. The following applies: tags: TNT reticulocyte lysate; label: 32P. How it is done:
as §2, §3, §4

A further data set addresses NeuroD1 (UniProt Q60867 Q60867:1-357). The experiment in a line: EMSA; homodimer. The settings on record: tags: TNT reticulocyte lysate; chain copies: 2 stated; label: 32P. How it is done: as §2, §3, §4
Data set [3] addresses T3, E47/NeuroD1 heterodimer. Description: EMSA; second strongest of four. The following applies: tags: TNT reticulocyte lysate; label: 32P. How it is done:
as §2, §3, §4

Data set [4] has as its target T1, HNF3beta (FOXA2). The experiment in a line: EMSA; high affinity; proximal and distal sites compete equally. The following applies: tags: pGEM-1 ratHNF3beta, TNT lysate; label: 32P.
Text: as §1

Data set [5] concerns the target T3, E47/NeuroD1 heterodimer. Description: EMSA; strongest of four. The following applies: tags: TNT reticulocyte lysate; label: 32P. How it is done:
as §2, §3, §4

T3 sequence (Q60867 whole entry, one chain of several): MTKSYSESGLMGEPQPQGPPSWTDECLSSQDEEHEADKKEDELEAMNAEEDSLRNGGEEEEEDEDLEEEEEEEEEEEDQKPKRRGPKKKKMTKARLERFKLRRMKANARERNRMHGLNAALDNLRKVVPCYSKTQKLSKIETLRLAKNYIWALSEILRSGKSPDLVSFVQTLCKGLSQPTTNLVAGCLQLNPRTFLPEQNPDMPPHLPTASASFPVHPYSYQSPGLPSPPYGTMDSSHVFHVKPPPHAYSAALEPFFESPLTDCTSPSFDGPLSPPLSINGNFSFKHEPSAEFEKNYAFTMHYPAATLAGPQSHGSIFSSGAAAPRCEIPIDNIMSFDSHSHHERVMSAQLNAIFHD
Sequence of NeuroD1 (Q60867 whole entry, one chain of several): as above

B1: H3-1 (ngn3 promoter proximal) (dsDNA)
DNA 1: GATCTCTCGAGAGAGCAAACAGCGCGGCGG
DNA 2: CCGCCGCGCTGTTTGCTCTCTCGAGAGATC
For the molecule B1, in the data set with HNF3beta (FOXA2) [1], the binding result is “binds”.

B2: NEUROG3 E box (dsDNA)
DNA 1: CTTTGTCCGGAATCCAGCTGTGCCCTGCGGGGGAG
DNA 2: CTCCCCCGCAGGGCACAGCTGGATTCCGGACAAAG
On to B2, for which the binding result with E47 is listed as “binds”.

B3: nkx2.2 E3 (dsDNA)
DNA 1: TTATTACCGCTGAACATATGGCCAATATTTTGACT
DNA 2: AGTCAAAATATTGGCCATATGTTCAGCGGTAATAA
With B3, the binding result with E47/NeuroD1 heterodimer [2], with NeuroD1 and with E47 was “binds” throughout.

B4: rat insulin I E2 (dsDNA)
DNA 1: CTGCTTCATCAGGCCATCTGGCCCCTTGTTAATAA
DNA 2: TTATTAACAAGGGGCCAGATGGCCTGATGAAGCAG
Turning to B4, the binding result with E47/NeuroD1 heterodimer [3] and with E47 was “binds” each time.

B5: H3-2 (ngn3 promoter distal) (dsDNA)
DNA 1: TTATTATTATTTTAGCAAACACTGGAGACAG
DNA 2: CTGTCTCCAGTGTTTGCTAAAATAATAATAA
For the molecule B5, in the data set with HNF3beta (FOXA2) [4], the binding result is recorded as “binds”.

B6: PAX4 E box (dsDNA)
DNA 1: TGTATAATTGTGAGCAGATGGCGGGGGCTGGCGGC
DNA 2: GCCGCCAGCCCCCGCCATCTGCTCACAATTATACA
For the molecule B6, the binding result with E47/NeuroD1 heterodimer [5] and with E47 was “binds” throughout.

(Values after patent US20040106555, “Neurogenin3 and production of pancreatic islet cells” (published 2004).)
